Data as given in US11175289B2, “Application of TRPM8 protein, related peptide fragment and their antibodies” (priority 2016, dated 2021).
Entries after “also recorded” stand apart in the source; their conditions may differ.

Columns and labels:
[1] = tested on: T lymphocyte in prostate of the modeling animal; assay: CD3 immunofluorescence staining of prostate tissue; format: in vivo, rat; details: SD rats immunized with antigen combined with CFA
Source text: (§1) Experiment is designed and performed as follows. Firstly, pure TRPM8 protein is combined with Complete Freund's adjuvant (CFA) to establish an animal model of CP/CPPS. The animal model is compared with a prostatein homogenate modeling method. Meanwhile, TRPM8 in prostatein homogenate is removed by immunomagnetic beads; wherein the prostatein homogenate is molded for serving as a negative control. HE staining method is utilized to evaluate the severity of inflammation in prostate tissue of each modeling group of animal, and the severity of inflammation in prostate tissue is performed with pathological score. CD3 immunofluorescence method is adopted to observe infiltrating of T lymphocyte in prostate of the modeling animal.
In addition, the prostate tissue sections of each group of animals to be tested are taken, baked in an oven for 30 minutes at 60° C., then subjected to CD3 immunofluorescence, and finally added with anti-fluorescence quenching agent for sealing, observed under a microscope, wherein photos are taken.
In order to improve the inflammatory cell containing a plurality of T-lymphocytes, the CD3 molecules are performed with immunofluorescence staining. The results are shown in FIG. 3: A: control blank group; B: protein homogenate group; C: pure TRPM8 protein group; D: TRPM8 protein free homogenate group.

[2] = tested on: prostate tissue of SD rats; assay: CP/CPPS animal model by immunization with antigen plus CFA; HE staining and pathological score of prostate; format: in vivo, rat
Source text: as §1
Take 40 8-week-old SPF level male SD rats, with weights at a range of 250±20 g. The rats are purchased from Shanghai Sijie laboratory Co., Ltd with a license number of SCXK (Shanghai) 2012-0006. Under an aseptic condition, prostate of an SD rats is taken to prepare prostatein homogenate and TRPM8 removed homogenate protein. Grouping of immune animals in experiments is as follows. 40 8-week-old SD rats are randomly classified into 4 groups, i.e., a homogenate protein group, a TRPM8 removed homogenate protein group, a pure TRPM8 protein group and a control group; wherein each group comprises 10 rats. After 8 weeks of immune, each group of the rats are injected with 10% chloral hydrate on abdomen for anesthesia, and plasma and prostate of each group of rats are respectively collected. Preparation of prostate pathological section: the paraffin embedded prostate sections of the rats in each experimental group are sent to a drying oven, heated under 60° C. for 30 min. […]
According to HE staining result, prostatitis degree of each group of rats are pathologically scored under standards as follows. […]
Each prostate section is scored by three associate professors in pathology according to the standards mentioned above under a randomized and double-blind principle, and an average value calculated is a histological score indicating degree of the prostatitis of the animal. […]

B1: TRPM8 protein: TRPM8 protein purchased from ProteinTech Group; combined with CFA to immunize SD rats (protein)
chain: MSFRAARLSMRNRRNDTLDSTRTLYSSASRSTDLSYSESDLVNFIQANFKKRECVFFTKDSKATENVCKCGYAQSQHMEGTQINQSEKWNYKKHTKEFPTDAFGDIQFETLGKKGKYIRLSCDTDAEILYELLTQHWHLKTPNLVISVTGGAKNFALKPRMRKIFSRLIYIAQSKGAWILTGGTHYGLMKYIGEVVRDNTISRSSEENIVAIGIAAWGMVSNRDTLIRNCDAEGYFLAQYLMDDFTRDPLYILDNNHTHLLLVDNGCHGHPTVEAKLRNQLEKYISERTIQDSNYGGKIPIVCFAQGGGKETLKAINTSIKNKIPCVVVEGSGQIADVIASLVEVEDALTSSAVKEKLVRFLPRTVSRLPEEETESWIKWLKEILECSHLLTVIKMEEAGDEIVSNAISYALYKAFSTSEQDKDNWNGQLKLLLEWNQLDLANDEIFTNDRRWESADLQEVMFTALIKDRPKFVRLFLENGLNLRKFLTHDVLTELFSNHFSTLVYRNLQIAKNSYNDALLTFVWKLVANFRRGFRKEDRNGRDEMDIELHDVSPITRHPLQALFIWAILQNKKELSKVIWEQTRGCTLAALGASKLLKTLAKVKNDINAAGESEELANEYETRAVELFTECYSSDEDLAEQLLVYSCEAWGGSNCLELAVEATDQHFIAQPGVQNFLSKQWYGEISRDTKNWKIILCLFIIPLVGCGFVSFRKKPVDKHKKLLWYYVAFFTSPFVVFSWNVVFYIAFLLLFAYVLLMDFHSVPHPPELVLYSLVFVLFCDEVRQWYVNGVNYFTDLWNVMDTLGLFYFIAGIVFRLHSSNKSSLYSGRVIFCLDYIIFTLRLIHIFTVSRNLGPKIIMLQRMLIDVFFFLFLFAVWMVAFGVARQGILRQNEQRWRWIFRSVIYEPYLAMFGQVPSDVDGTTYDFAHCTFTGNESKPLCVELDEHNLPRFPEWITIPLVCIYMLSTNILLVNLLVAMFGYTVGTVQENNDQVWKFQRYFLVQEYCSRLNIPFPFIVFAYFYMVVKKCFKCCCKEKNMESSVCCFKNEDNETLAWEGVMKENYLVKINTKANDTSEEMRHRFRQLDTKLNDLKGLLKEIANKIK
[1]
  CD3 immunofluorescence staining of prostate stromal: A large area of CD3 molecule marked by red luminescence
[2]; SD rats immunized with antigen
  pathogenicity causing CP/CPPS: successfully induces generation of CP/CPPS; also recorded: strong pathogenicity causing CP/CPPS
[2]; SD rats immunized with antigen combined with CFA, 8 weeks
  inflammatory cell infiltration in prostate (HE staining): a plurality of inflammatory cell infiltration
[2]; SD rats immunized with antigen combined with CFA, 8 weeks, score 0-3, M±SD
  histological score (pathological evaluation of prostatitis degree): 2.7000±0.4830
